Experimental data as given in the supplement of paper PMC9112550, “Optimization of the antimicrobial peptide Bac7 by deep mutational scanning” (BMC Biology, 2022).

Each sequence was assayed on Escherichia coli TOP10 (assay: shrunken log2 fold change of peptide-encoding DNA abundance (4.5 h post-induction vs induction); higher = less antimicrobial activity (less host growth inhibition)). Conditions: time post-induction: 4.5 h; library: site-saturation at positions 5, 18, 19, 20.
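Further: peptides expressed intracellularly from a pBAD plasmid library in pooled LB shake-flask culture, induced with 0.3% L-arabinose, DNA abundance read by NGS, three biological replicates, DESeq2 with apeglm shrinkage.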

Sequence	shrunken log2 fold change
RRIRQRPPRLPRPRPRPWEFPRP	-0.123
RRIRQRPPRLPRPRPRPWGFPRP	0.0223
RRIRQRPPRLPRPRPRPWHFPRP	-0.0375
RRIRQRPPRLPRPRPRPWICPRP	0.117
RRIRQRPPRLPRPRPRPWIKPRP	-0.0062
RRIRQRPPRLPRPRPRPWITPRP	-0.0754
RRIRQRPPRLPRPRPRPWKDPRP	-0.0211
RRIRQRPPRLPRPRPRPWKLPRP	-0.09
RRIRQRPPRLPRPRPRPWKVPRP	-0.00992
RRIRQRPPRLPRPRPRPWLIPRP	-0.289
RRIRQRPPRLPRPRPRPWLPPRP	-0.181
RRIRQRPPRLPRPRPRPWNDPRP	-0.373
RRIRQRPPRLPRPRPRPWPIPRP	-0.152
RRIRQRPPRLPRPRPRPWQNPRP	0.0546
RRIRQRPPRLPRPRPRPWRCPRP	-0.149
RRIRQRPPRLPRPRPRPWRPPRP	0.143
RRIRQRPPRLPRPRPRPWSTPRP	-0.0264
RRIRQRPPRLPRPRPRPWTPPRP	-0.061
RRIRQRPPRLPRPRPRPYALPRP	-0.0202
RRIRQRPPRLPRPRPRPYCTPRP	-0.863
RRIRQRPPRLPRPRPRPYDSPRP	-0.00804
RRIRQRPPRLPRPRPRPYEHPRP	0.00367
RRIRQRPPRLPRPRPRPYGFPRP	0.0147
RRIRQRPPRLPRPRPRPYHPPRP	-0.531
RRIRQRPPRLPRPRPRPYIMPRP	-1.64

Sequence	shrunken log2 fold change
RRIRQRPPRLPRPRPRPYIQPRP	-0.32
RRIRQRPPRLPRPRPRPYKCPRP	-0.334
RRIRQRPPRLPRPRPRPYKDPRP	-0.0988
RRIRQRPPRLPRPRPRPYKFPRP	-0.0369
RRIRQRPPRLPRPRPRPYKGPRP	-0.0872
RRIRQRPPRLPRPRPRPYLGPRP	-0.0158
RRIRQRPPRLPRPRPRPYLLPRP	-0.0483
RRIRQRPPRLPRPRPRPYLQPRP	0.000139
RRIRQRPPRLPRPRPRPYNKPRP	-0.403
RRIRQRPPRLPRPRPRPYNYPRP	-1.44
RRIRQRPPRLPRPRPRPYRSPRP	-0.0119
RRIRQRPPRLPRPRPRPYSQPRP	-0.195
RRIRQRPPRLPRPRPRPYTRPRP	-0.0062
RRIRQRPPRLPRPRPRPYVHPRP	-0.258
RRIRQRPPRLPRPRPRPYVQPRP	-0.00748
RRIRQRPPRLPRPRPRPYWCPRP	-0.164
RRIRQRPPRLPRPRPRPYYQPRP	-0.284
RRIRRRPPRLPRPRPRPAAQPRP	0.462
RRIRRRPPRLPRPRPRPAASPRP	0.38
RRIRRRPPRLPRPRPRPACPPRP	0.353
RRIRRRPPRLPRPRPRPACQPRP	0.835
RRIRRRPPRLPRPRPRPACWPRP	0.626
RRIRRRPPRLPRPRPRPADMPRP	-0.0139
RRIRRRPPRLPRPRPRPAEDPRP	0.987
RRIRRRPPRLPRPRPRPAICPRP	0.134

Sequence	shrunken log2 fold change
RRIRRRPPRLPRPRPRPAKNPRP	0.279
RRIRRRPPRLPRPRPRPANVPRP	-0.15
RRIRRRPPRLPRPRPRPAQKPRP	0.547
RRIRRRPPRLPRPRPRPAQYPRP	0.34
RRIRRRPPRLPRPRPRPARGPRP	0.731
RRIRRRPPRLPRPRPRPASTPRP	-0.0241
RRIRRRPPRLPRPRPRPATGPRP	0.222
RRIRRRPPRLPRPRPRPAVMPRP	0.0975
RRIRRRPPRLPRPRPRPAVVPRP	0.518
RRIRRRPPRLPRPRPRPAYAPRP	-0.0409
RRIRRRPPRLPRPRPRPAYNPRP	-0.28
RRIRRRPPRLPRPRPRPAYQPRP	-0.289
RRIRRRPPRLPRPRPRPCALPRP	-0.22
RRIRRRPPRLPRPRPRPCEEPRP	0.218
RRIRRRPPRLPRPRPRPCFAPRP	0.442
RRIRRRPPRLPRPRPRPCFDPRP	0.1
RRIRRRPPRLPRPRPRPCFFPRP	0.0648
RRIRRRPPRLPRPRPRPCGHPRP	-0.0448
RRIRRRPPRLPRPRPRPCGNPRP	0.0466
RRIRRRPPRLPRPRPRPCIFPRP	-0.0526
RRIRRRPPRLPRPRPRPCILPRP	-0.208
RRIRRRPPRLPRPRPRPCKMPRP	-0.0577
RRIRRRPPRLPRPRPRPCKWPRP	-0.0414
RRIRRRPPRLPRPRPRPCMHPRP	0.105
RRIRRRPPRLPRPRPRPCMLPRP	-0.151
